Measurements as given in publication PMC4622456 (mAbs, 2015).
Substitutions are numbered along the chain they refer to. In names and notes the source's numbering stands.

B1: 18E5 (antibody, V domains shown)
VH: EVQLQQSGPELVKPGAAVKMSCKASGYTFTRYLIHWVKQKPGQGLEWIGYINPYNDGTKYNEKFKGKATLTSDKSSSTAYMELSSLTSEDSAVYYCTSNWDLDYWGQGTTLTVSS
VL: DIVMTQSPATLSVTPGDRVSLSCRASQSISDYLYWYQQKSHESPRLLIKFASQSISGIPSRFTGSGSGSDFTLSIDSVEPDDVGVFFCQNGHSFPFTFGGGTKLEIK
B2: 26F7 (antibody, V domains shown)
VH: EVQLQQSGPELVKPGASVKISCKASGYTFTDYYMNWVRQSHGESLEWIGDFNHNNDVITYNPKFKGKVTLTVEKSSTTAYMELRSLSSEDSAVYYCARGLRGYYAMDYWGQGTSVTVSS
VL: DIVLTQSPASLAVSLGQRATISCRASKSVRFSDYFYMHWYQQKPGQPPKLLIYLASNLESGVPARFSGSGSGTDFTLNIHPVEEEDAATYYCQNSRELPYTFGGGTKLEIK
B3: mouse 6B8 (antibody, V domains shown)
VH: QVQLQQSDAELVKPGTSVKTSCKISGNTFTDQTIHWMKQRPEQGLEWIGYIYPRDDSPKYNENFKGKATLTADKSSSTAYMQLNSLTSEDSAVYFCAIPDRSGYAWFIYWGQGTLVTVSS
VL: DIVMTQSHKFLSTSVGDRVTITCKASRDVAIAVAWYQQKPGQSPKLLLFWASTRHTGVPDRFTGSGSRTDFTLTISNVQSEDLADYFCHQYSSYPFTFGSGTKLEIK
B4: 15C11 (antibody, V domains shown)
VH: EVQLQQSGPVLVKPGASVKMSCKASGYTFTDYYMNWVKQSHGKSLEWIGVIIPYNGGTSYNQKFKGKATLTVDKSSSTAYMELNSLTSEDSAVYYCARDGHRWYFDVWGTGTTVTVSS
VL: DVVMTQTPLSLPVSLGDQASISCRSSQSLVHSNGNTYLHWYLQKPGQSPKLLIYKVSNRFSGVPDRFSGSGSGTDFTLKINRVEAEDLGVYFCSQSTHVPYTFGGGTQLEIK
B5: 34G3 (antibody, V domains shown)
VH: EFQLQQSGPELVKPGASVKISCKASGYSFTDYNMNWVKQSKGKSLEWIGVIIPNYGFTSYNQNFKGKATLTVDQSSSTAHMQLNSVTSEDSAVYYCVRDGGILLWYLDVWGTGTTVTVSS
VL: B4 VL with N81S, Q108K, K112N
B6: BI 655067 (VH 05-Vk65 IgG1) (antibody, V domains shown)
VH: QVQLVQSGAEVKKPGSSVKVSCKASGFTFTDQTIHWVRQAPGQGLEWMGYIYPRDDSPKYNENFKGKVTLTADKSTSTAYMELSSLRSEDTAVYYCAIPDRSGYAWFIYWGQGTLVTVSS
VL: DIQMTQSPSSLSASVGDRVTITCKASRDVAIAVAWYQQKPGKVPKLLLFWASTRHTGVPDRFSGSGSGTDFTLTISSLQPEDLADYYCHQYSSYPFTFGQGTKLEIK
B7: BI 655066 (VH 02-Vk66 IgG1) (antibody, V domains shown)
VH: B6 VH with F27Y, V37M, M48I, L70I
VL: B6 VL with L48I, F49Y, D60S, G68R, L83V, Y87F, Q100S
B8: BI 655069 (VH 05-Vk66 IgG1) (antibody, V domains shown)
VH: B6 VH
VL: B6 VL with L48I, F49Y, D60S, G68R, L83V, Y87F, Q100S
B9: BI 655068 (VH 02-Vk65 IgG1) (antibody, V domains shown)
VH: B6 VH with F27Y, V37M, M48I, L70I
VL: B6 VL
B10: recombinant chimeric 6B8 (antibody, V domains shown)
VH: B3 VH
VL: B3 VL
B11: BI 655066, CHO derived (antibody, V domains shown)
VH: B6 VH with F27Y, V37M, M48I, L70I
VL: B6 VL with L48I, F49Y, D60S, G68R, L83V, Y87F, Q100S
B12: BI 655066, NS0 derived (human IgG1 Fc L234A, L235A) (antibody, V domains shown)
VH: B6 VH with F27Y, V37M, M48I, L70I
VL: B6 VL with L48I, F49Y, D60S, G68R, L83V, Y87F, Q100S
B13: VH 02-Vk78 IgG1 (antibody, V domains shown)
VH: B6 VH with F27Y, V37M, M48I, L70I
VL: B6 VL with G68R, Q100S
B14: VH 36-Vk78 IgG1 (antibody, V domains shown)
VH: B6 VH with V20T, F27G, A40R, K67R, L70I
VL: B6 VL with G68R, Q100S
B15: VH 65-Vk78 IgG1 (antibody, V domains shown)
VH: B6 VH with F27G, K67R, Y95F, I98R
VL: B6 VL with G68R, Q100S
B16: VH 36-Vk65 IgG1 (antibody, V domains shown)
VH: B6 VH with V20T, F27G, A40R, K67R, L70I
VL: B6 VL
B17: VH 65-Vk65 IgG1 (antibody, V domains shown)
VH: B6 VH with F27G, K67R, Y95F, I98R
VL: B6 VL
B18: VH 65-Vk66 IgG1 (antibody, V domains shown)
VH: B6 VH with F27G, K67R, Y95F, I98R
VL: B6 VL with L48I, F49Y, D60S, G68R, L83V, Y87F, Q100S
B19: VH 36-Vk66 IgG1 (antibody, V domains shown)
VH: B6 VH with V20T, F27G, A40R, K67R, L70I
VL: B6 VL with L48I, F49Y, D60S, G68R, L83V, Y87F, Q100S

molecular target: T1, recombinant human IL23 (human, UniProt Q9NPF7;P29460); test: cell-based or functional assay
T1 sequence (Q9NPF7 20-189, chain 1 of 2): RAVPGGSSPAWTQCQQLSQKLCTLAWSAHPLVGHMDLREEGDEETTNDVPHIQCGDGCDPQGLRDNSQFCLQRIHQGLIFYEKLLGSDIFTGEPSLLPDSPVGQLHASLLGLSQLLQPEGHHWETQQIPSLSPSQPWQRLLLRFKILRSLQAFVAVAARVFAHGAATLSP
T1 sequence (P29460 23-328, chain 2 of 2): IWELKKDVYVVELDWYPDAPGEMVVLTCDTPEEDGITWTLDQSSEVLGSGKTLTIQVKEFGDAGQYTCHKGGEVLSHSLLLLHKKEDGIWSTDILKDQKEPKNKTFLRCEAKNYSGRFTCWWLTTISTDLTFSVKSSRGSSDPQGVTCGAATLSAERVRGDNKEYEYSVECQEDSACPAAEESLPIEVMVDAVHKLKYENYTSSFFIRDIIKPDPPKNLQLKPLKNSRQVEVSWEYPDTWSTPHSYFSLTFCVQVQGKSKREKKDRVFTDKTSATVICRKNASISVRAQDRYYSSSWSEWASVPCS

Inhibition of IL23 induced IL17 production in mouse splenocytes (IC50, pM) [pM] | Binder
< 13 | B1
9 | B2
8 | B3
197 | B4
8 | B5

molecular target: recombinant mouse IL23 (Mus musculus, UniProt Q9EQ14;P43432); test: SPR
Sequence (Q9EQ14 22-196, chain 1 of 2): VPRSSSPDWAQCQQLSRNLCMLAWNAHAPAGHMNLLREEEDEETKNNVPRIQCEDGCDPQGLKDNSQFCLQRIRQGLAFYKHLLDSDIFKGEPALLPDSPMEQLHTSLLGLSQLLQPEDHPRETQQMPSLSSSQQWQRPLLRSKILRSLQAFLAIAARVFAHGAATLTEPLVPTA
Sequence (P43432 23-335, chain 2 of 2): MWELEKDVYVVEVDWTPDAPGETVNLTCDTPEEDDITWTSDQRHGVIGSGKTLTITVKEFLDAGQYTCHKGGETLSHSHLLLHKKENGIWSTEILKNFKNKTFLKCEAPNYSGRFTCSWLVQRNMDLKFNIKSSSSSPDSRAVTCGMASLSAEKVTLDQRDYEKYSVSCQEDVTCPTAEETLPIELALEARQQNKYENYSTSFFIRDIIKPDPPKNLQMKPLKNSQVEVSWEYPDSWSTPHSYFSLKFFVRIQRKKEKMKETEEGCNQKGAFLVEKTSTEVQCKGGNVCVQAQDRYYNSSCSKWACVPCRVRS

binding result | Binder
no binding (tested: 1.2 μM) | B6
no binding (tested: 1.2 μM) | B7
no binding (tested: 1.2 μM) | B8
no binding (tested: 1.2 μM) | B9

molecular target: recombinant rat IL23 (Rattus norvegicus, UniProt Q91Z84;Q9R278); test: SPR

binding result | Binder
no binding (tested: 1.2 μM) | B6
no binding (tested: 1.2 μM) | B7
no binding (tested: 1.2 μM) | B8
no binding (tested: 1.2 μM) | B9

molecular target: T1, recombinant human IL23; test: SPR

Kd [nM] | Binder
0.025 | B3
< 0.01 | B10

molecular target: T1, recombinant human IL23; test: BLI

Kd [nM] | Binder
< 0.01 | B1
0.028 | B2
0.026 | B4
0.033 | B5

molecular target: T1, recombinant human IL23; test: BLI; remark: another data set of the same source

kon(serum)/kon(buffer) | Binder
1.2 | B6
1.2 | B7
1.2 | B8
1 | B9

molecular target: T1, recombinant human IL23; test: SPR; remark: another data set of the same source

Kd [nM] | Binder
< 0.01 | B11
< 0.01 | B12

molecular target: T1, recombinant human IL23; test: SPR; remark: another data set of the same source

Kd [nM] | Binder
< 0.01 | B6
< 0.01 | B13
< 0.01 | B14
< 0.01 | B15
0.096 | B16
< 0.01 | B7
0.036 | B8
0.107 | B17
0.015 | B9
< 0.01 | B18
< 0.01 | B19

molecular target: recombinant cynomolgus IL23 (Macaca fascicularis, UniProt H6WS56;H6WS55); test: SPR

Kd [nM] | Binder
< 0.01 | B6
< 0.01 | B7
0.016 | B8
< 0.01 | B9
